Measured values reported in publication PMC12120360, “Lysine acetylation modulates s‐OPA1 GTPase activity and oligomerization in mitochondrial membrane remodeling” (Protein Science : A Publication of the Protein Society, 2025).

Target: the molecule itself
Test: mass photometry; protein in solution at 75 nM final; 20 mM HEPES-NaOH pH 7.5, 130 mM NaCl, 10 mM KCl, 2 mM MgCl2, 2 mM DTT, 2% glycerol; Refeyn mass photometer; mass measured three times for each protein

| Protein | stoichiometry N |
| --- | --- |
| short form of human OPA1 (residues 195–960) wild-type (domain or fragment, UniProt O60313-1 195-960, looked up, acetyl-lysine at K342 only (endogenous, acquired during expression; found by mass spectrometry), Optic Atrophy 1 (OPA1), human, short form (s-OPA1), residues 195-960; domain model of isoform 1; Gene bought from Genscript in the pGS-21a vector; also called s-OPA1 WT; s-OPA1; source: E. coli BL21 (DE3), purified (glutathione resin, 3C protease cleavage, size exclusion chromatography)) ATDRGSESDKHFRKVSDKEKIDQLQEELLHTQLKYQRILERLEKENKELRKLVLQKDDKGIHHRKLKKSLIDMYSEVLDVLSDYDASYNTQDHLPRVVVVGDQSAGKTSVLEMIAQARIFPRGSGEMMTRSPVKVTLSEGPHHVALFKDSSREFDLTKEEDLAALRHEIELRMRKNVKEGCTVSPETISLNVKGPGLQRMVLVDLPGVINTVTSGMAPDTKETIFSISKAYMQNPNAIILCIQDGSVDAERSIVTDLVSQMDPHGRRTIFVLTKVDLAEKNVASPSRIQQIIEGKLFPMKALGYFAVVTGKGNSSESIEAIREYEEEFFQNSKLLKTSMLKAHQVTTRNLSLAVSDCFWKMVRESVEQQADSFKATRFNLETEWKNNYPRLRELDRNELFEKAKNEILDEVISLSQVTPKHWEEILQQSLWERVSTHVIENIYLPAAQTMNSGTFNTTVDIKLKQWTDKQLPNKAVEVAWETLQEEFSRFMTEPKGKEHDDIFDKLKEAVKEESIKRHKWNDFAEDSLRVIQHNALEDRSISDKQQWDAAIYFMEEALQARLKDTENAIENMVGPDWKKRWLYWKNRTQEQCVHNETKNELEKMLKCNEEHPAYLASDEITTVRKNLESRGVEVDPSLIKDTWHQVYRRHFLKTALNHCNLCRRGFYYYQRHFVDSELECNDVVLFWRIQRMLAITANTLRQQLTNTEVRRLEKNVKEVLEDFAEDGEKKIKLLTGKRVQLAEDLKKVREIQEKLDAFIEALHQEK | 2 |
| s-OPA1 K579Q (domain or fragment, human, UniProt O60313-1 195-960, looked up, endogenous lysine acetylation, sites listed in Figure 2c, Optic Atrophy 1 (OPA1), human, short form (s-OPA1), residues 195-960; domain model of isoform 1; Gene bought from Genscript in the pGS-21a vector; source: E. coli BL21 (DE3), purified (glutathione resin, 3C protease cleavage, size exclusion chromatography)) ATDRGSESDKHFRKVSDKEKIDQLQEELLHTQLKYQRILERLEKENKELRKLVLQKDDKGIHHRKLKKSLIDMYSEVLDVLSDYDASYNTQDHLPRVVVVGDQSAGKTSVLEMIAQARIFPRGSGEMMTRSPVKVTLSEGPHHVALFKDSSREFDLTKEEDLAALRHEIELRMRKNVKEGCTVSPETISLNVKGPGLQRMVLVDLPGVINTVTSGMAPDTKETIFSISKAYMQNPNAIILCIQDGSVDAERSIVTDLVSQMDPHGRRTIFVLTKVDLAEKNVASPSRIQQIIEGKLFPMKALGYFAVVTGKGNSSESIEAIREYEEEFFQNSKLLKTSMLKAHQVTTRNLSLAVSDCFWKMVRESVEQQADSFKATRFNLETEWQNNYPRLRELDRNELFEKAKNEILDEVISLSQVTPKHWEEILQQSLWERVSTHVIENIYLPAAQTMNSGTFNTTVDIKLKQWTDKQLPNKAVEVAWETLQEEFSRFMTEPKGKEHDDIFDKLKEAVKEESIKRHKWNDFAEDSLRVIQHNALEDRSISDKQQWDAAIYFMEEALQARLKDTENAIENMVGPDWKKRWLYWKNRTQEQCVHNETKNELEKMLKCNEEHPAYLASDEITTVRKNLESRGVEVDPSLIKDTWHQVYRRHFLKTALNHCNLCRRGFYYYQRHFVDSELECNDVVLFWRIQRMLAITANTLRQQLTNTEVRRLEKNVKEVLEDFAEDGEKKIKLLTGKRVQLAEDLKKVREIQEKLDAFIEALHQEK | 2 |
| s-OPA1 K342Q (domain or fragment, human, UniProt O60313-1 195-960, looked up, 11 additional acetylation sites (endogenous; listed in Figure 2c), Optic Atrophy 1 (OPA1), human, short form (s-OPA1), residues 195-960; domain model of isoform 1; Gene bought from Genscript in the pGS-21a vector; source: E. coli BL21 (DE3), purified (glutathione resin, 3C protease cleavage, size exclusion chromatography)) ATDRGSESDKHFRKVSDKEKIDQLQEELLHTQLKYQRILERLEKENKELRKLVLQKDDKGIHHRKLKKSLIDMYSEVLDVLSDYDASYNTQDHLPRVVVVGDQSAGKTSVLEMIAQARIFPRGSGEMMTRSPVKVTLSEGPHHVALFQDSSREFDLTKEEDLAALRHEIELRMRKNVKEGCTVSPETISLNVKGPGLQRMVLVDLPGVINTVTSGMAPDTKETIFSISKAYMQNPNAIILCIQDGSVDAERSIVTDLVSQMDPHGRRTIFVLTKVDLAEKNVASPSRIQQIIEGKLFPMKALGYFAVVTGKGNSSESIEAIREYEEEFFQNSKLLKTSMLKAHQVTTRNLSLAVSDCFWKMVRESVEQQADSFKATRFNLETEWKNNYPRLRELDRNELFEKAKNEILDEVISLSQVTPKHWEEILQQSLWERVSTHVIENIYLPAAQTMNSGTFNTTVDIKLKQWTDKQLPNKAVEVAWETLQEEFSRFMTEPKGKEHDDIFDKLKEAVKEESIKRHKWNDFAEDSLRVIQHNALEDRSISDKQQWDAAIYFMEEALQARLKDTENAIENMVGPDWKKRWLYWKNRTQEQCVHNETKNELEKMLKCNEEHPAYLASDEITTVRKNLESRGVEVDPSLIKDTWHQVYRRHFLKTALNHCNLCRRGFYYYQRHFVDSELECNDVVLFWRIQRMLAITANTLRQQLTNTEVRRLEKNVKEVLEDFAEDGEKKIKLLTGKRVQLAEDLKKVREIQEKLDAFIEALHQEK | 2 |
| s-OPA1 K342R (domain or fragment, human, UniProt O60313-1 195-960, looked up, 18 acetylated lysine sites (endogenous; listed in Figure 2c), Optic Atrophy 1 (OPA1), human, short form (s-OPA1), residues 195-960; domain model of isoform 1; Gene bought from Genscript in the pGS-21a vector; source: E. coli BL21 (DE3), purified (glutathione resin, 3C protease cleavage, size exclusion chromatography)) ATDRGSESDKHFRKVSDKEKIDQLQEELLHTQLKYQRILERLEKENKELRKLVLQKDDKGIHHRKLKKSLIDMYSEVLDVLSDYDASYNTQDHLPRVVVVGDQSAGKTSVLEMIAQARIFPRGSGEMMTRSPVKVTLSEGPHHVALFRDSSREFDLTKEEDLAALRHEIELRMRKNVKEGCTVSPETISLNVKGPGLQRMVLVDLPGVINTVTSGMAPDTKETIFSISKAYMQNPNAIILCIQDGSVDAERSIVTDLVSQMDPHGRRTIFVLTKVDLAEKNVASPSRIQQIIEGKLFPMKALGYFAVVTGKGNSSESIEAIREYEEEFFQNSKLLKTSMLKAHQVTTRNLSLAVSDCFWKMVRESVEQQADSFKATRFNLETEWKNNYPRLRELDRNELFEKAKNEILDEVISLSQVTPKHWEEILQQSLWERVSTHVIENIYLPAAQTMNSGTFNTTVDIKLKQWTDKQLPNKAVEVAWETLQEEFSRFMTEPKGKEHDDIFDKLKEAVKEESIKRHKWNDFAEDSLRVIQHNALEDRSISDKQQWDAAIYFMEEALQARLKDTENAIENMVGPDWKKRWLYWKNRTQEQCVHNETKNELEKMLKCNEEHPAYLASDEITTVRKNLESRGVEVDPSLIKDTWHQVYRRHFLKTALNHCNLCRRGFYYYQRHFVDSELECNDVVLFWRIQRMLAITANTLRQQLTNTEVRRLEKNVKEVLEDFAEDGEKKIKLLTGKRVQLAEDLKKVREIQEKLDAFIEALHQEK | 2 |
